{"source": "patent US11820973B2", "about": "“Methods and system for interfering with viability of bacteria and related compounds and compositions” (CALIFORNIA INSTITUTE OF TECHNOLOGY, priority 2011, dated 2023)", "molecules": {"B1": {"name": "conalbumin: Fe(III)-binding protein of the transferrin family, an Fe(III) chelator; substantially iron-free, from Sigma-Aldrich (protein, UniProt P02789 20-705, looked up)", "Ovotransferrin": "APPKSVIRWCTISSPEEKKCNNLRDLTQQERISLTCVQKATYLDCIKAIANNEADAISLDGGQAFEAGLAPYKLKPIAAEVYEHTEGSTTSYYAVAVVKKGTEFTVNDLQGKTSCHTGLGRSAGWNIPIGTLLHRGAIEWEGIESGSVEQAVAKFFSASCVPGATIEQKLCRQCKGDPKTKCARNAPYSGYSGAFHCLKDGKGDVAFVKHTTVNENAPDQKDEYELLCLDGSRQPVDNYKTCNWARVAAHAVVARDDNKVEDIWSFLSKAQSDFGVDTKSDFHLFGPPGKKDPVLKDLLFKDSAIMLKRVPSLMDSQLYLGFEYYSAIQSMRKDQLTPSPRENRIQWCAVGKDEKSKCDRWSVVSNGDVECTVVDETKDCIIKIMKGEADAVALDGGLVYTAGVCGLVPVMAERYDDESQCSKTDERPASYFAVAVARKDSNVNWNNLKGKKSCHTAVGRTAGWVIPMGLIHNRTGTCNFDEYFSEGCAPGSPPNSRLCQLCQGSGGIPPEKCVASSHEKYFGYTGALRCLVEKGDVAFIQHSTVEENTGGKNKADWAKNLQMDDFELLCTDGRRANVMDYRECNLAEVPTHAVVVRPEKANKIRDLLERQEKRFGVNGSEKSKFMMFESQNKDLLFKDLTKCLFKVREGTTYKEFLGDKFYTVISSLKTCNPSDILQMCSFLEGK", "modifications": "iron-free", "notes": "substantially iron-free, from Sigma-Aldrich"}}, "key": {"[1]": {"system": "P. aeruginosa PA14 wild type", "assay": "Flow cell biofilm development, wild type, 1% TSB with or without conalbumin"}, "[2]": {"system": "P. aeruginosa PA14 mature biofilms", "assay": "MBEC assay, dissolution of mature biofilms", "type": "cell-based, Pseudomonas aeruginosa", "settings": "conalbumin; mature biofilms; 24 h exposure", "procedure": "(§1) In some examples, biofilm prevention and dissolution were measured via a high-throughput biofilm assay (MBEC Physiology and Genetics Assay) consisting of a 96-well plate into which a 96-peg plastic lid fits. This lid also fits over a standard 96-well plate, which was subsequently used to test the efficacy of iron chelators. Inoculum was prepared by diluting (30-fold) a 1.0 McFarland suspension of P. aeruginosa PA14 in TSB. 150 μl, was dispensed into each of the 60 inner wells, while 200 μl, of sterile trypticase soy broth (TSB) was placed in each perimeter well. For dissolution experiments, plates were incubated at 37° C. for 24 h, and were transferred to an anaerobic chamber for 24 h at 37° C. in anaerobic TSB containing 50 mM KNO3. Biofilms were then exposed to conalbumin and/or Ferrozine® for 24 h. Each treatment was complemented with the addition of 80 μM ferrous ammonium sulfate. After treatment, lids were rinsed once in 50 mM HEPES, air dried for 10 min and quantified by crystal violet staining. For biofilm prevention, anaerobic inoculum was amended with conalbumin and/or Ferrozine®. Media was replaced every 24 h by transferring the MBEC lid to a sterile plate containing growth media+/− treatments, and biofilms were allowed to develop for 168 h. Biomass was quantified as described above. Biological triplicates and six technical replicates (n=18) were used for each treatment."}, "[3]": {"system": "P. aeruginosa PA14 biofilm", "assay": "MBEC assay, anaerobic biofilm prevention", "type": "cell-based, Pseudomonas aeruginosa", "settings": "100 μM conalbumin, ˜10 μM Fe(II) and 10 μM Fe(III) present", "procedure": "as §1"}, "[4]": {"system": "P. aeruginosa", "assay": "Planktonic growth rates with iron chelators", "type": "cell-based, Pseudomonas aeruginosa"}, "[5]": {"settings": "Day 6, WT, 40 μg/ml conalbumin, 10 μM PCA or PYO"}}}
{"molecule": "B1", "values": [{"measurement": "Max. biofilm thickness", "setting": "[1]; [5]", "result": 32, "unit": "μm"}, {"measurement": "Substratum coverage", "setting": "[1]; [5]", "result": "11.8 ± 1.3", "unit": "%"}, {"measurement": "Total biomass", "setting": "[1]; Day 6, WT, additives to 1% TSB: 40 μg/ml conalbumin, 10 μM PCA or PYO", "result": "0.80 ± 0.08", "unit": "μm^3/μm^2"}, {"measurement": "Avg. thickness of biomass", "setting": "[1]; Day 6, WT, calculated for the area covered by biomass, 40 μg/ml conalbumin, 10 μM PCA or PYO", "result": "9.0 ± 0.7", "unit": "μm"}, {"measurement": "Biofilm formation with conalbumin (iron-free form) added", "setting": "[1]; wild type, 1% TSB, 40 μg/ml conalbumin", "result": "neither strain formed biofilms"}, {"measurement": "Reduction of established biomass", "setting": "[2]", "result": "did not significantly reduce established biomass"}, {"measurement": "Prevention of biofilm growth", "setting": "[3]", "result": "ineffective in preventing biofilm growth"}, {"measurement": "Effect on planktonic growth rates", "setting": "[4]", "result": "Neither compound affected planktonic growth rates"}]}
